# Reference: paper PMC3444823
# Tests used:
# [1] = target: single-chain fusion protein of CD4i antibody domain m36.4 with gp120SC (human | HIV-1 (clade B isolate)); assay: SPR
# [2] = target: single-chain fusion protein of CD4i antibody domain m36.4 with gp140SC (human | HIV-1 (clade B isolate)); assay: SPR
# [3] = target: truncated HIV-1 gp120MS (residues 83-492, intact variable loops) (HIV-1 (clade A isolate)); assay: SPR
# [4] = target: single-chain fusion protein of CD4i scFv m9 with gp120SC (HIV-1 (clade B isolate)); assay: SPR
# [5] = target: truncated HIV-1 gp120SC (residues 83-492, intact variable loops) (HIV-1 (clade B isolate)); assay: SPR
# [6] = target: single-chain fusion protein of CD4i antibody domain m36.4 with gp120MS (human | HIV-1 (clade A isolate)); assay: SPR
# [7] = target: stabilized gp120SC with T257S+S375W mutations (HIV-1 (clade B isolate)); assay: SPR
# [8] = target: truncated HIV-1 gp120SC (residues 83-492, intact variable loops) (HIV-1 (clade B isolate)); assay: SEC
# [9] = target: truncated HIV-1 gp120MS (residues 83-492, intact variable loops) (HIV-1 (clade A isolate)); assay: SEC
substance,measurement,setting,value
two-domain human soluble CD4 (domain or fragment),Kd,[1],0.73 nM
same,Kd,[2],1.9 nM
same,Kd,[3],0.21 nM
same,Kd,[4],1.8 nM
same,Kd,[5],104 nM
same,Kd,[6],0.15 nM
same,Kd,[7],59 nM
"truncated HIV-1 gp120SC (residues 83-492, intact variable loops) (domain or fragment)",stoichiometry N,[8],2
"truncated HIV-1 gp120MS (residues 83-492, intact variable loops) (domain or fragment)",stoichiometry N,[9],2
